Source: patent US20190328788A1 (GENAGON THERAPEUTICS, published 2019)
Ends that are not written are not given here.

The binders below were run against T1, Growth and Differentiation Factor 15 (GDF15) (UniProt Q99988 197-308, limits assumed) (assay: ELISA, peptide on streptavidin plate, ligand 100 ng/ml).
T1 construct: also called MIC-1; MIC1
T1 sequence (looked up): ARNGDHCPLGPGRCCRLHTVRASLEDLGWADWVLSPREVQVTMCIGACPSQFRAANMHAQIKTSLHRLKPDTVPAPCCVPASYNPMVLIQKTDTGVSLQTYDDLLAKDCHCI
Protocol: (§1) Biotinylated synthetic peptide fragments from CLPTM1 (JPT peptides, Germany) were immobilized in a streptavidin 96 well plate (#15500 Pierce) at 1 μM in PBS over night at +4° C. Plate was then washed 4 times in 300 μl PBS with 0.05% tween-20 (wash buffer). The plate was then blocked with PBS 1% BSA and 0.05% tween-20 (blocking buffer) for 1.5 hours at room temperature, then washed 4 times in wash buffer. Ligands GDF15, TGFb1, TGFb2 and TGFb3 (Abcam) were added in blocking buffer at 100 ng/ml and incubated at room temperature for 2 hours. The plate was then washed 8 times in 300 μL wash buffer with 2× NaCl. An anti-GDF15 antibody was added at 1 μg/ml (R&D Systems, goat polyclonal) or a pan-specific anti-TGFb antibody (R&D Systems, mouse 1 D11), and the plate incubated in blocking buffer for 1 hour at room temperature followed by washing with 4×300 μl wash buffer. HAF017 anti-goat-HRP antibody (to detect the anti-GDF15 antibody) or Santa Cruz sc-2005 Goat anti-mouse-HRP (to detect the pan-specific anti-TGFb antibody) was added and the plate incubated for 1 hour in blocking buffer followed by a wash. TMB substrate was added and stopped after 15 minutes with H₂SO₄. OD 450-620 was measured in an ELISA reader.

Row | Binder | ELISA OD450
1 | LMNLHVYISEHEHFTDFNATG (also: biotinylated, site not given here) [CLPTM1 peptide fragment of SEQ ID NO: 13] | 0.058 OD450
2 | SALFWEQHDLVYGDWTSGENG (also: biotinylated, site not given here) [CLPTM1 peptide fragment of SEQ ID NO: 14] | 0.034 OD450
3 | SDGCYEHFAELDIPQSVQQNG (also: biotinylated, site not given here) [CLPTM1 peptide fragment of SEQ ID NO: 15] | 0.024 OD450
4 | GSIYIHVYFTKSGFHPDPRQG (also: biotinylated, site not given here) [CLPTM1 peptide fragment of SEQ ID NO: 16] | 0.149 OD450
5 | KALYRRLATVHMSRMINKYKG (also: biotinylated, site not given here, also called peptide 10) [CLPTM1 peptide fragment of SEQ ID NO: 17] | 0.197 OD450
6 | RRRFQKTKNLLTGETEADPEG (also: biotinylated, site not given here) [CLPTM1 peptide fragment of SEQ ID NO: 18] | 0.021 OD450
7 | MIKRAEDYGPVEVISHWHPNG (also: biotinylated, site not given here) [CLPTM1 peptide fragment of SEQ ID NO: 19] | 0.028 OD450
8 | ITINIVDDHTPWVKGSVPPPG (also: biotinylated, site not given here) [CLPTM1 peptide fragment of SEQ ID NO: 20] | 0.098 OD450
9 | SGQVTSNGSIGRDPPAETQPG (also: biotinylated, site not given here) [CLPTM1 peptide fragment of SEQ ID NO: 9] | 0.009 OD450
10 | LDQYVKFDAVSGDYYPIIYFG (also: biotinylated, site not given here, also called peptide 14) [CLPTM1 peptide fragment of SEQ ID NO: 21] | 0.14 OD450
11 | NDYWNLQKDYYPINESLASLG (also: biotinylated, site not given here) [CLPTM1 peptide fragment of SEQ ID NO: 22] | 0.038 OD450
12 | PLRVSFCPLSLWRWQLYAAQG (also: biotinylated, site not given here) [CLPTM1 peptide fragment of SEQ ID NO: 23] | 0.063 OD450
13 | STKSPWNFLGDELYEQSDEEG (also: biotinylated, site not given here) [CLPTM1 peptide fragment of SEQ ID NO: 24] | 0.053 OD450
14 | YEQSDEEQDSVKVALLETNPG (also: biotinylated, site not given here) [CLPTM1 peptide fragment of SEQ ID NO: 25] | 0.022 OD450

What follows are binders tested against T2, transforming growth factor-beta 1 (TGF-β1) (UniProt P01137 279-390) in the same assay as above.
T2 construct: also called TGFb1; TGFB1
Protocol: as §1

T2 sequence (P01137 279-390 limits assumed): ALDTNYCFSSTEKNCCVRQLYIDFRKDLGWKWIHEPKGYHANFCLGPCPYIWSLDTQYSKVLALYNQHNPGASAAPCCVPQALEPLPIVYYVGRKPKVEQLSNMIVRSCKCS

Row | Binder | ELISA OD450
15 | LMNLHVYISEHEHFTDFNATG (also: biotinylated, site not given here) [CLPTM1 peptide fragment of SEQ ID NO: 13] | 0.02 OD450
16 | SALFWEQHDLVYGDWTSGENG (also: biotinylated, site not given here) [CLPTM1 peptide fragment of SEQ ID NO: 14] | 0.022 OD450
17 | SDGCYEHFAELDIPQSVQQNG (also: biotinylated, site not given here) [CLPTM1 peptide fragment of SEQ ID NO: 15] | 0.006 OD450
18 | GSIYIHVYFTKSGFHPDPRQG (also: biotinylated, site not given here) [CLPTM1 peptide fragment of SEQ ID NO: 16] | 0.122 OD450
19 | KALYRRLATVHMSRMINKYKG (also: biotinylated, site not given here, also called peptide 10) [CLPTM1 peptide fragment of SEQ ID NO: 17] | 0.913 OD450
20 | RRRFQKTKNLLTGETEADPEG (also: biotinylated, site not given here) [CLPTM1 peptide fragment of SEQ ID NO: 18] | 0.002 OD450
21 | MIKRAEDYGPVEVISHWHPNG (also: biotinylated, site not given here) [CLPTM1 peptide fragment of SEQ ID NO: 19] | 0.006 OD450
22 | ITINIVDDHTPWVKGSVPPPG (also: biotinylated, site not given here) [CLPTM1 peptide fragment of SEQ ID NO: 20] | 0.011 OD450
23 | SGQVTSNGSIGRDPPAETQPG (also: biotinylated, site not given here) [CLPTM1 peptide fragment of SEQ ID NO: 9] | 0.002 OD450
24 | LDQYVKFDAVSGDYYPIIYFG (also: biotinylated, site not given here, also called peptide 14) [CLPTM1 peptide fragment of SEQ ID NO: 21] | 0.152 OD450
25 | NDYWNLQKDYYPINESLASLG (also: biotinylated, site not given here) [CLPTM1 peptide fragment of SEQ ID NO: 22] | 0.017 OD450
26 | PLRVSFCPLSLWRWQLYAAQG (also: biotinylated, site not given here) [CLPTM1 peptide fragment of SEQ ID NO: 23] | 0.083 OD450
27 | STKSPWNFLGDELYEQSDEEG (also: biotinylated, site not given here) [CLPTM1 peptide fragment of SEQ ID NO: 24] | 0.018 OD450
28 | YEQSDEEQDSVKVALLETNPG (also: biotinylated, site not given here) [CLPTM1 peptide fragment of SEQ ID NO: 25] | 0.01 OD450

Each binder was assayed against T3, transforming growth factor-beta 2 (TGF-β2) (UniProt P61812 303-414) in the same assay as above.
T3 construct: also called TGFb2; TGFB2
T3 sequence (looked up): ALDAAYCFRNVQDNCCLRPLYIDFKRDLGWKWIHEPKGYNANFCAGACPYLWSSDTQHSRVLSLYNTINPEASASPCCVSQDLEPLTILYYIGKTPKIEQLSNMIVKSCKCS
Protocol: as §1

Row | Binder | ELISA OD450
29 | LMNLHVYISEHEHFTDFNATG (also: biotinylated, site not given here) [CLPTM1 peptide fragment of SEQ ID NO: 13] | 0.005 OD450
30 | SALFWEQHDLVYGDWTSGENG (also: biotinylated, site not given here) [CLPTM1 peptide fragment of SEQ ID NO: 14] | 0.002 OD450
31 | SDGCYEHFAELDIPQSVQQNG (also: biotinylated, site not given here) [CLPTM1 peptide fragment of SEQ ID NO: 15] | -0.003 OD450
32 | GSIYIHVYFTKSGFHPDPRQG (also: biotinylated, site not given here) [CLPTM1 peptide fragment of SEQ ID NO: 16] | 0.107 OD450
33 | KALYRRLATVHMSRMINKYKG (also: biotinylated, site not given here, also called peptide 10) [CLPTM1 peptide fragment of SEQ ID NO: 17] | 1.01 OD450
34 | RRRFQKTKNLLTGETEADPEG (also: biotinylated, site not given here) [CLPTM1 peptide fragment of SEQ ID NO: 18] | 0.002 OD450
35 | MIKRAEDYGPVEVISHWHPNG (also: biotinylated, site not given here) [CLPTM1 peptide fragment of SEQ ID NO: 19] | 0.002 OD450
36 | ITINIVDDHTPWVKGSVPPPG (also: biotinylated, site not given here) [CLPTM1 peptide fragment of SEQ ID NO: 20] | 0.005 OD450
37 | SGQVTSNGSIGRDPPAETQPG (also: biotinylated, site not given here) [CLPTM1 peptide fragment of SEQ ID NO: 9] | 0.001 OD450
38 | LDQYVKFDAVSGDYYPIIYFG (also: biotinylated, site not given here, also called peptide 14) [CLPTM1 peptide fragment of SEQ ID NO: 21] | 0.019 OD450
39 | NDYWNLQKDYYPINESLASLG (also: biotinylated, site not given here) [CLPTM1 peptide fragment of SEQ ID NO: 22] | 0.005 OD450
40 | PLRVSFCPLSLWRWQLYAAQG (also: biotinylated, site not given here) [CLPTM1 peptide fragment of SEQ ID NO: 23] | 0.066 OD450
41 | STKSPWNFLGDELYEQSDEEG (also: biotinylated, site not given here) [CLPTM1 peptide fragment of SEQ ID NO: 24] | 0.007 OD450
42 | YEQSDEEQDSVKVALLETNPG (also: biotinylated, site not given here) [CLPTM1 peptide fragment of SEQ ID NO: 25] | 0.007 OD450

The binders below were run against T4, transforming growth factor-beta 3 (TGF-β3) (UniProt P10600 301-412) in the same assay as above.
T4 construct: also called TGFb3; TGFB3
T4 sequence (looked up): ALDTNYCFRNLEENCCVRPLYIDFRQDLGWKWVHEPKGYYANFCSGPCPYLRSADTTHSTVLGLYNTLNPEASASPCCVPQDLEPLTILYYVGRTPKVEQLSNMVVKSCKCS
Protocol: as §1

Row | Binder | ELISA OD450
43 | LMNLHVYISEHEHFTDFNATG (also: biotinylated, site not given here) [CLPTM1 peptide fragment of SEQ ID NO: 13] | 0.014 OD450
44 | SALFWEQHDLVYGDWTSGENG (also: biotinylated, site not given here) [CLPTM1 peptide fragment of SEQ ID NO: 14] | 0.02 OD450
45 | SDGCYEHFAELDIPQSVQQNG (also: biotinylated, site not given here) [CLPTM1 peptide fragment of SEQ ID NO: 15] | 0.004 OD450
46 | GSIYIHVYFTKSGFHPDPRQG (also: biotinylated, site not given here) [CLPTM1 peptide fragment of SEQ ID NO: 16] | 0.02 OD450
47 | KALYRRLATVHMSRMINKYKG (also: biotinylated, site not given here, also called peptide 10) [CLPTM1 peptide fragment of SEQ ID NO: 17] | 0.046 OD450
48 | RRRFQKTKNLLTGETEADPEG (also: biotinylated, site not given here) [CLPTM1 peptide fragment of SEQ ID NO: 18] | 0.004 OD450
49 | MIKRAEDYGPVEVISHWHPNG (also: biotinylated, site not given here) [CLPTM1 peptide fragment of SEQ ID NO: 19] | 0.004 OD450
50 | ITINIVDDHTPWVKGSVPPPG (also: biotinylated, site not given here) [CLPTM1 peptide fragment of SEQ ID NO: 20] | 0.068 OD450
51 | SGQVTSNGSIGRDPPAETQPG (also: biotinylated, site not given here) [CLPTM1 peptide fragment of SEQ ID NO: 9] | 0.001 OD450
52 | LDQYVKFDAVSGDYYPIIYFG (also: biotinylated, site not given here, also called peptide 14) [CLPTM1 peptide fragment of SEQ ID NO: 21] | 0.065 OD450
53 | NDYWNLQKDYYPINESLASLG (also: biotinylated, site not given here) [CLPTM1 peptide fragment of SEQ ID NO: 22] | 0.025 OD450
54 | PLRVSFCPLSLWRWQLYAAQG (also: biotinylated, site not given here) [CLPTM1 peptide fragment of SEQ ID NO: 23] | 0.016 OD450
55 | STKSPWNFLGDELYEQSDEEG (also: biotinylated, site not given here) [CLPTM1 peptide fragment of SEQ ID NO: 24] | 0.012 OD450
56 | YEQSDEEQDSVKVALLETNPG (also: biotinylated, site not given here) [CLPTM1 peptide fragment of SEQ ID NO: 25] | 0.014 OD450
